These results are taken from the supplement of paper PMC10567573.

First the molecules themselves.
B1: CLPTM1 (parent)
chain: LGCYAVYSLLYLEHKGWYSWVLSM
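Also: lentivirally expressed fusions sorted by FACS into six bins by GFP to DsRed ratio, PSI derived from sequencing read proportions per bin multiplied by bin number.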

The variants in this series derive from B1. Briefly: protein stability index of a GFP-peptide fusion (GPS, HEK-293T) (PSI 1-6); higher = more stable. Conditions: c terminus: a fixed tail appended.
Take LGCYAIYSLLYLEHKGWYSWVLSM [V6I]: the protein stability index was found to be 3.34.
LGCYACYSLLYLEHKGWYSWVLSM [V6C]: the protein stability index was 4.28.
For LGCYANYSLLYLEHKGWYSWVLSM [V6N], the protein stability index worked out at 2.73.
Take LGCYATYSLLYLEHKGWYSWVLSM [V6T]: the protein stability index turned out to be 2.61.
Regarding LGCYAMYSLLYLEHKGWYSWVLSM [V6M], the protein stability index was found to be 2.22.
Regarding LGCYALYSLLYLEHKGWYSWVLSM [V6L], the protein stability index stood at 3.28.
Next, LGCYARYSLLYLEHKGWYSWVLSM [V6R]: 2.3; LGCYAPYSLLYLEHKGWYSWVLSM [V6P]: 2.49; LGCYAHYSLLYLEHKGWYSWVLSM [V6H]: 2.31.
Consider LGCYAWYSLLYLEHKGWYSWVLSM [V6W], for which the protein stability index was 1.84.
Next, LGCKAVYSLLYLEHKGWYSWVLSM [Y4K]: 3.58; LGCHAVYSLLYLEHKGWYSWVLSM [Y4H]: 2.69; LGCVAVYSLLYLEHKGWYSWVLSM [Y4V]: 3.14.
For LGCWAVYSLLYLEHKGWYSWVLSM [Y4W], the protein stability index was 2.19.
Under LGCFAVYSLLYLEHKGWYSWVLSM [Y4F] stands 2.33.
In the case of LGCGAVYSLLYLEHKGWYSWVLSM [Y4G], the protein stability index was 3.18.
In the case of LGCCAVYSLLYLEHKGWYSWVLSM [Y4C], the protein stability index was 3.33.
With LGCDAVYSLLYLEHKGWYSWVLSM [Y4D], the protein stability index worked out at 1.9.
Under LGCNAVYSLLYLEHKGWYSWVLSM [Y4N] stands 3.2; under LGCTAVYSLLYLEHKGWYSWVLSM [Y4T], 3.11; under LGCLAVYSLLYLEHKGWYSWVLSM [Y4L], 3.04.
On to LGCSAVYSLLYLEHKGWYSWVLSM [Y4S], for which the protein stability index worked out at 3.75.
LGCAAVYSLLYLEHKGWYSWVLSM [Y4A]: the protein stability index stood at 4.36.
In the case of LGCQAVYSLLYLEHKGWYSWVLSM [Y4Q], the protein stability index stood at 2.4.
Take LGCPAVYSLLYLEHKGWYSWVLSM [Y4P]: the protein stability index was 3.14.
On to LGCIAVYSLLYLEHKGWYSWVLSM [Y4I], for which the protein stability index came out at 1.89.
Regarding LGCMAVYSLLYLEHKGWYSWVLSM [Y4M], the protein stability index was 3.4.
Next, LGCRAVYSLLYLEHKGWYSWVLSM [Y4R]: 2.91.
As to LGCYLVYSLLYLEHKGWYSWVLSM [A5L], the protein stability index worked out at 4.56.
Regarding LGCYEVYSLLYLEHKGWYSWVLSM [A5E], the protein stability index was found to be 3.12.
For LGCYSVYSLLYLEHKGWYSWVLSM [A5S], the protein stability index is 3.5.
Consider LGCYIVYSLLYLEHKGWYSWVLSM [A5I], for which the protein stability index was 3.28.
In the case of LGCYWVYSLLYLEHKGWYSWVLSM [A5W], the protein stability index came out at 4.06.
Next, LGCYMVYSLLYLEHKGWYSWVLSM [A5M]: 2; LGCYRVYSLLYLEHKGWYSWVLSM [A5R]: 2.43.
With LGCYCVYSLLYLEHKGWYSWVLSM [A5C], the protein stability index amounted to 3.34.
As to LGCYFVYSLLYLEHKGWYSWVLSM [A5F], the protein stability index is 3.69.
LGCYNVYSLLYLEHKGWYSWVLSM [A5N]: the protein stability index is 4.03.
Next, LGCYHVYSLLYLEHKGWYSWVLSM [A5H]: 2.82; LGCYKVYSLLYLEHKGWYSWVLSM [A5K]: 2.91.
In the case of LGCYDVYSLLYLEHKGWYSWVLSM [A5D], the protein stability index is 2.12.
Take LGCYTVYSLLYLEHKGWYSWVLSM [A5T]: the protein stability index is 2.57.
Next, LGCYAVFSLLYLEHKGWYSWVLSM [Y7F]: 3.72.
Turning to LGCYAVDSLLYLEHKGWYSWVLSM [Y7D], the protein stability index stood at 3.78.
As for LGCYAVESLLYLEHKGWYSWVLSM [Y7E], the protein stability index came to 2.54.
Turning to LGCYAVCSLLYLEHKGWYSWVLSM [Y7C], the protein stability index came to 3.42.
As to LMCYAVYSLLYLEHKGWYSWVLSM [G2M], the protein stability index amounted to 3.58.
Consider LQCYAVYSLLYLEHKGWYSWVLSM [G2Q], for which the protein stability index came out at 3.29.
LRCYAVYSLLYLEHKGWYSWVLSM [G2R]: the protein stability index came to 3.1.
Next, LECYAVYSLLYLEHKGWYSWVLSM [G2E]: 3.26.
On to LPCYAVYSLLYLEHKGWYSWVLSM [G2P], for which the protein stability index was found to be 2.76.
Consider LVCYAVYSLLYLEHKGWYSWVLSM [G2V], for which the protein stability index was 2.32.
Consider LLCYAVYSLLYLEHKGWYSWVLSM [G2L], for which the protein stability index was determined as 3.57.
On to LICYAVYSLLYLEHKGWYSWVLSM [G2I], for which the protein stability index worked out at 2.87.
For the variant LWCYAVYSLLYLEHKGWYSWVLSM [G2W], the protein stability index stood at 2.07.
Regarding LFCYAVYSLLYLEHKGWYSWVLSM [G2F], the protein stability index stood at 2.72.
Under LNCYAVYSLLYLEHKGWYSWVLSM [G2N] stands 3.83; under LTCYAVYSLLYLEHKGWYSWVLSM [G2T], 3.4; under LYCYAVYSLLYLEHKGWYSWVLSM [G2Y], 3.37.
For LSCYAVYSLLYLEHKGWYSWVLSM [G2S], the protein stability index is 1.47.
With LDCYAVYSLLYLEHKGWYSWVLSM [G2D], the protein stability index is 3.19.
As to IGCYAVYSLLYLEHKGWYSWVLSM [L1I], the protein stability index is 3.58.
Consider DGCYAVYSLLYLEHKGWYSWVLSM [L1D], for which the protein stability index was 2.85.
Turning to NGCYAVYSLLYLEHKGWYSWVLSM [L1N], the protein stability index is 3.26.
Take RGCYAVYSLLYLEHKGWYSWVLSM [L1R]: the protein stability index was found to be 3.05.
Consider TGCYAVYSLLYLEHKGWYSWVLSM [L1T], for which the protein stability index amounted to 3.54.
Take FGCYAVYSLLYLEHKGWYSWVLSM [L1F]: the protein stability index was 2.55.
As to CGCYAVYSLLYLEHKGWYSWVLSM [L1C], the protein stability index was found to be 2.92.
Take GGCYAVYSLLYLEHKGWYSWVLSM [L1G]: the protein stability index was found to be 2.73.
Consider YGCYAVYSLLYLEHKGWYSWVLSM [L1Y], for which the protein stability index stood at 3.77.
In the case of SGCYAVYSLLYLEHKGWYSWVLSM [L1S], the protein stability index worked out at 3.4.
QGCYAVYSLLYLEHKGWYSWVLSM [L1Q]: the protein stability index was 4.62.
In the case of HGCYAVYSLLYLEHKGWYSWVLSM [L1H], the protein stability index is 2.19.
In the case of MGCYAVYSLLYLEHKGWYSWVLSM [L1M], the protein stability index was determined as 3.26.
Under EGCYAVYSLLYLEHKGWYSWVLSM [L1E] stands 3.05; under VGCYAVYSLLYLEHKGWYSWVLSM [L1V], 2.65.
In the case of WGCYAVYSLLYLEHKGWYSWVLSM [L1W], the protein stability index was found to be 2.96.
On to LGKYAVYSLLYLEHKGWYSWVLSM [C3K], for which the protein stability index turned out to be 2.74.
Turning to LGSYAVYSLLYLEHKGWYSWVLSM [C3S], the protein stability index amounted to 3.55.
Consider LGRYAVYSLLYLEHKGWYSWVLSM [C3R], for which the protein stability index stood at 1.63.
For LGPYAVYSLLYLEHKGWYSWVLSM [C3P], the protein stability index came out at 2.26.
Regarding LGWYAVYSLLYLEHKGWYSWVLSM [C3W], the protein stability index came out at 2.24.
Regarding LGNYAVYSLLYLEHKGWYSWVLSM [C3N], the protein stability index turned out to be 3.61.
With LGFYAVYSLLYLEHKGWYSWVLSM [C3F], the protein stability index is 2.37.
Consider LGYYAVYSLLYLEHKGWYSWVLSM [C3Y], for which the protein stability index turned out to be 3.21.
LGDYAVYSLLYLEHKGWYSWVLSM [C3D]: the protein stability index amounted to 2.59.
Turning to LGVYAVYSLLYLEHKGWYSWVLSM [C3V], the protein stability index was 3.36.
Under LGGYAVYSLLYLEHKGWYSWVLSM [C3G] stands 2.35; under LGMYAVYSLLYLEHKGWYSWVLSM [C3M], 3.15; under LGLYAVYSLLYLEHKGWYSWVLSM [C3L], 3.21.
For LGIYAVYSLLYLEHKGWYSWVLSM [C3I], the protein stability index is 2.62.
Turning to LGTYAVYSLLYLEHKGWYSWVLSM [C3T], the protein stability index is 2.52.
For the variant LGEYAVYSLLYLEHKGWYSWVLSM [C3E], the protein stability index was 3.26.
On to LGHYAVYSLLYLEHKGWYSWVLSM [C3H], for which the protein stability index was 2.58.
